Data reported in paper PMC3688583, “Eubacterial SpoVG Homologs Constitute a New Family of Site-Specific DNA-Binding Proteins”.

Key:
[1] = target: T1, SpoVGBb (Borrelia burgdorferi B31) (UniProt O51726); test: EMSA; details: 50 mM Tris-HCl pH 7.5, 1 mM DTT, 150 nM EDTA, 50 ng/ml poly dI-dC, phosphatase and protease inhibitors; about 20 C; protein stocks in 50 mM Tris-HCl, 25 mM …
T1 sequence: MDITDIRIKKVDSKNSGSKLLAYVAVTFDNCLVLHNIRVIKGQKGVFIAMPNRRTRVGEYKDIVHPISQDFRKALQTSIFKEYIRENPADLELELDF

[2] = target: T2, SpoVGSa (Staphylococcus aureus) (UniProt Q7A7B5); test: EMSA; details: 50 mM Tris-HCl pH 7.5, 1 mM DTT, 150 nM EDTA, 50 ng/ml poly dI-dC, phosphatase and protease inhibitors; about 20 C; protein stocks in 50 mM Tris-HCl, 25 mM …
T2 sequence: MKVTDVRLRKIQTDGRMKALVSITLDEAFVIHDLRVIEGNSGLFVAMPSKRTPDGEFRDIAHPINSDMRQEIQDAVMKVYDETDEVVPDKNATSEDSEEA

[3] = target: T2, SpoVGSa (Staphylococcus aureus); test: competition; details: 50 mM Tris-HCl pH 7.5, 1 mM DTT, 150 nM EDTA, 50 ng/ml poly dI-dC, phosphatase and protease inhibitors; about 20 C; protein stocks in 50 mM Tris-HCl, 25 mM …
SpoVGSa [4] = target: T3, SpoVGSa (Staphylococcus aureus, UniProt Q7A7B5 1-100); test: competition; 50-fold excess vs cap41; 50 mM Tris-HCl pH 7.5, 1 mM DTT, 150 nM EDTA, 50 ng/ml poly dI-dC, phosphatase and protease inhibitors; about 20 C; protein stocks in 50 mM Tris-HCl, 25 mM KCl, 10% glycerol, 0.01% Tween-20; details: protein: recombinant; tags: 6xHis (pET101)
T3 sequence: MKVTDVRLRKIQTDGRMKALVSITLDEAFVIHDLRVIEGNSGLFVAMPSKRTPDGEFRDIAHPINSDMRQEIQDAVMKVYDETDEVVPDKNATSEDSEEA

SpoVGSa [5] = target: T3, SpoVGSa; test: competition; 10- to 50-fold excess vs cap41; 50 mM Tris-HCl pH 7.5, 1 mM DTT, 150 nM EDTA, 50 ng/ml poly dI-dC, phosphatase and protease inhibitors; about 20 C; protein stocks in 50 mM Tris-HCl, 25 mM KCl, 10% glycerol, 0.01% Tween-20; details: protein: recombinant; tags: 6xHis (pET101); blunt
SpoVGSa [6] = target: T3, SpoVGSa; test: competition; 25- and 50-fold excess vs cap41; 50 mM Tris-HCl pH 7.5, 1 mM DTT, 150 nM EDTA, 50 ng/ml poly dI-dC, phosphatase and protease inhibitors; about 20 C; protein stocks in 50 mM Tris-HCl, 25 mM KCl, 10% glycerol, 0.01% Tween-20; details: protein: recombinant; tags: 6xHis (pET101); blunt
SpoVGBb-Sa = SpoVGBb-Sa (Borrelia burgdorferi B31, UniProt O51726 1-97, Q69S;F71M;K73Q;A74E); test: EMSA; 200 nM protein; 50 mM Tris-HCl pH 7.5, 1 mM DTT, 150 nM EDTA, 50 ng/ml poly dI-dC, phosphatase and protease inhibitors; about 20 C; protein stocks in 50 mM Tris-HCl, 25 mM KCl, 10% glycerol, 0.01% Tween-20; details: protein: recombinant; tags: 6xHis (pET101); label: 5' biotin (strand 1); strands not exact complements (S12 has 3 extra nt)
SpoVGBb = target: T4, SpoVGBb (Borrelia burgdorferi B31, UniProt O51726 1-97); test: as above; details: protein: recombinant; tags: 6xHis (pET101); label: 5' biotin (strand 1); strands not exact complements (S12 has 3 extra nt)
T4 sequence: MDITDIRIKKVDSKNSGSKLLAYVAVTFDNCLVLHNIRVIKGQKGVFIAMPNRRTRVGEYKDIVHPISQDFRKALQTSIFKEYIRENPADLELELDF

SpoVGSa K50A-R51A = SpoVGSa K50A-R51A (Staphylococcus aureus, UniProt Q7A7B5 1-100, K50A;R51A); test: EMSA; 1.5 uM protein; 50 mM Tris-HCl pH 7.5, 1 mM DTT, 150 nM EDTA, 50 ng/ml poly dI-dC, phosphatase and protease inhibitors; about 20 C; protein stocks in 50 mM Tris-HCl, 25 mM KCl, 10% glycerol, 0.01% Tween-20; details: protein: recombinant; tags: 6xHis (pET101); label: 5' biotin (strand 1); strands not exact complements (S12 has 3 extra nt)
SpoVGSa R51A = SpoVGSa R51A (Staphylococcus aureus, UniProt Q7A7B5 1-100, R51A); test: as above; details: protein: recombinant; tags: 6xHis (pET101); label: 5' biotin (strand 1); strands not exact complements (S12 has 3 extra nt)
SpoVGSa K50A = SpoVGSa K50A (Staphylococcus aureus, UniProt Q7A7B5 1-100, K50A); test: as above; details: protein: recombinant; tags: 6xHis (pET101); label: 5' biotin (strand 1); strands not exact complements (S12 has 3 extra nt)
SpoVGSa [7] = target: T3, SpoVGSa; test: EMSA; 50 mM Tris-HCl pH 7.5, 1 mM DTT, 150 nM EDTA, 50 ng/ml poly dI-dC, phosphatase and protease inhibitors; about 20 C; protein stocks in 50 mM Tris-HCl, 25 mM KCl, 10% glycerol, 0.01% Tween-20; details: protein: recombinant; tags: 6xHis (pET101); label: 5' biotin (strand 1); strands not exact complements (S12 has 3 extra nt)

“GTTAATAGTTTGCCTAAGGAAAAAAGCGATATAAGTAGTACGACGGGGAAACCAGATAGTACAGGTTCTGTTGGT (double strand) [vlsE F27B-R10]” was tested, and the binding [1] was “binds”.

cap5 5' non-coding DNA was tested, and the Kd [2] was 316 nM.

For “CCTCCTGAATATTTTAAGTTTATCAAAACTTTTTAGGGACACTATTTTTTGAAAAAGTGCTCCTTACTCAAATAATATATAAATTATTAGTATATGTATATAGTTTTTTAAGTATTTTTAGTTTTTTTTAAATAAATATATTGAATATACCCATATATTTTTAATTAACCATTCATTTTTGTAATATAAATGTGTATACTAAAATTAAATTAAATACATAAAGG (double strand) [esxA 5' non-coding DNA]”, the binding [3] was “binds”.

“GGTGAATACTTATCATTTAAGTCCTTTGACACCTCATCTAAAATTCTAGGACTTTTAACAATTTCTTTATACGTATTTACAAGTTGAATATTACTTTGAACCTCTTGCGCCATAAACTGAGGATTGTCACCCTTAGTTTGATTCACTAAAATTTGAGTATTAGCTTGATATTTAGGTGATAAGACGAAAAATGTAACAATAGCGC (double strand) [cap5A ORF DNA]” was tested, and the binding [3] was “binds more weakly”.

B1: competitor B (dsDNA)
DNA 1: TACATATAAATAAAAAGGCGAAAATAAT
DNA 2: ATTATTTTCGCCTTTTTATTTATATGTA
B1: no binding (SpoVGSa [4]).

B2: competitor A (dsDNA)
DNA 1: GAGTATAATTATTTTTAATTTACATATA
DNA 2: TATATGTAAATTAAAAATAATTATACTC
B2: binds (SpoVGSa [5]).

B3: mutant competitor A (dsDNA)
DNA 1: GAGTAGCCGCCTTTTCGCCGGACATATA
DNA 2: TATATGTCCGGCGAAAAGGCGGCTACTC
With B3 the binding signal (SpoVGSa [6]) was > 5 fold lower affinity than competitor A.

B4: cap41 (dsDNA)
DNA 1: GAGTATAATTATTTTTAATTTACATATAAATAAAAAGGCGAAAATAATGCGGTTTAAAAGTAATTAAT
DNA 2: ATTAATTACTTTTAAACCGCATTATTTTCGCCTTTTTATTTATATGTAAATTAAAAATAATTAATATACTC
B4: binds (SpoVGBb-Sa); no binding (SpoVGBb); no binding (SpoVGSa K50A-R51A). B4: no binding (SpoVGSa R51A); no binding (SpoVGSa K50A); binds (SpoVGSa [7]).

B5: competitor C (dsDNA)
DNA 1: AAAATAATGCGGTTTAAAAGTAATTAAT
DNA 2: ATTAATTACTTTTAAACCGCATTATTTT
B5: no binding (SpoVGSa [4]).
